Series [1] has as its target T1, CjGH5D (Cellvibrio japonicus, UniProt B3PD52).
T1 construct: gene cel5D; GH5_4 catalytic module, lipoprotein signal peptide and serine-rich linker removed; N-terminal His6 (pET28a), E. coli; borders 96-468 are those of the crystal model
As to the kind of experiment: time-dependent inactivation, residual XXXG-CNP hydrolysis at […] nm. The series is classed as biochemical. The following applies: covalent; irreversible active-site affinity label; 20 mM phosphate pH 7.5, 40 °C, 0.1 mg/mL BSA; XXXG-CNP substrate.

Substrate in series [2]: O=[N+]([O-])c1ccc(O[C@@H]2O[C@H](CO)[C@@H](O[C@@H]3O[C@H](CO[C@H]4OC[C@@H](O)[C@H](O)[C@H]4O)[C@@H](O[C@@H]4O[C@H](CO[C@H]5OC[C@@H](O)[C@H](O)[C@H]5O)[C@@H](O[C@@H]5O[C@H](CO[C@H]6OC[C@@H](O)[C@H](O)[C@H]6O)[C@@H](O)[C@H](O)[C@H]5O)[C@H](O)[C@H]4O)[C@H](O)[C@H]3O)[C@H](O)[C@H]2O)c(Cl)c1
Description: purified protein. The series is classed as biochemical, Cellvibrio japonicus.

Substrate in series [3]: O=[N+]([O-])c1ccc(O[C@@H]2O[C@H](CO)[C@@H](O[C@@H]3O[C@H](CO[C@H]4OC[C@@H](O)[C@H](O)[C@H]4O[C@@H]4O[C@H](CO)[C@H](O)[C@H](O)[C@H]4O)[C@@H](O[C@@H]4O[C@H](CO[C@H]5OC[C@@H](O)[C@H](O)[C@H]5O[C@@H]5O[C@H](CO)[C@H](O)[C@H](O)[C@H]5O)[C@@H](O[C@@H]5O[C@H](CO[C@H]6OC[C@@H](O)[C@H](O)[C@H]6O)[C@@H](O)[C@H](O)[C@H]5O)[C@H](O)[C@H]4O)[C@H](O)[C@H]3O)[C@H](O)[C@H]2O)c(Cl)c1
Description: purified protein. The series is classed as biochemical, Cellvibrio japonicus.

Substrate in series [4]: O=[N+]([O-])c1ccc(O[C@@H]2O[C@H](CO)[C@@H](O[C@@H]3O[C@H](CO)[C@@H](O[C@@H]4O[C@H](CO)[C@@H](O)[C@H](O)[C@H]4O)[C@H](O)[C@H]3O)[C@H](O)[C@H]2O)c(Cl)c1
Description: purified protein. The series is classed as biochemical, Cellvibrio japonicus. The settings on record: 50 mM phosphate pH 7.5, 55 °C.

Substrate in series [5]: O=[N+]([O-])c1ccc(O[C@@H]2O[C@H](CO)[C@@H](O[C@@H]3O[C@H](CO)[C@@H](O[C@@H]4O[C@H](CO)[C@@H](O[C@@H]5O[C@H](CO)[C@@H](O)[C@H](O)[C@H]5O)[C@H](O)[C@H]4O)[C@H](O)[C@H]3O)[C@H](O)[C@H]2O)c(Cl)c1
As to the kind of experiment: purified protein. The series is classed as biochemical, Cellvibrio japonicus. The settings on record: 50 mM phosphate pH 7.5, 55 °C.

Broadly, the Km is the concentration of substrate that gives half-maximal velocity. The kcat is the maximal rate divided by the concentration of active sites. As usually defined, the kcat/Km is the second-order rate constant that governs catalysis at low substrate concentration.

The molecule `O=C(CBr)N[C@@H]1O[C@H](CO)[C@@H](O[C@@H]2O[C@H](CO[C@H]3OC[C@@H](O)[C@H](O)[C@H]3O)[C@@H](O[C@@H]3O[C@H](CO[C@H]4OC[C@@H](O)[C@H](O)[C@H]4O)[C@@H](O[C@@H]4O[C@H](CO[C@H]5OC[C@@H](O)[C@H](O)[C@H]5O)[C@@H](O)[C@H](O)[C@H]4O)[C@H](O)[C@H]3O)[C@H](O)[C@H]2O)[C@H](O)[C@H]1O` [XXXG-NHCOCH2Br] returned a KI (inactivation) in series [1] of 1780 ± 170 µM.

B1: CjGH5D (Cellvibrio japonicus Ueda107) (protein)
chain: GLYPSYNTSPAAPDSTGMQSTAVQLAGKIRLGWNIGNTMEAIGGETAWGNPMVSNELLKLVKDSGFDAVRIPVAWDQYANQESAEISAAWLNRVKQVVQMAIDNELYVLINIHWDGGWLENNITPAKKDENNAKQKAFWEQIATHLRDFDEHLLFAGTNEPNAENAEQMDVLNSYLQTFVDAVRSTGGKNAYRVLVLQGPVTDIEKTNELWTHMPADTATDRLMAEVHFYTPYNFALMRQDESWGKQFYYWGEGFLSTTDTERNPTWGEEATIDQLFDLMKTKFVDQGIPVVLGEFSAMRRTNLTGDALTLHLAGRAYYHKYVTQQALARGLLPFYWDNGGNDNFSSGIFNRQQNTVFDQQVLDALLEGAGAQ
notes: GH5_4 catalytic module, lipoprotein signal peptide and serine-rich linker removed; N-terminal His6 (pET28a), E. coli; borders 96-468 are those of the crystal model
In the case of B1, in series [2] (50 mM phosphate pH 7.5, 50 °C), the Km came out at 810 ± 100 µM, the kcat came out at 4.68 ± 0.2 s⁻¹ and the kcat/Km turned out to be 5780 ± 750 M⁻¹ s⁻¹. Besides, in series [3] (50 mM phosphate pH 7.5, 50 °C), the Km came out at 180 ± 20 µM, the kcat turned out to be 2.7 ± 0.0667 s⁻¹ and the kcat/Km is 15000 ± 1720 M⁻¹ s⁻¹.

B2: CjGH5F (Cellvibrio japonicus Ueda107) (protein)
chain: FSVTVGGSSSGTMRNLTSVQLARLMGAGWNLGNSLEAIGSETAWGNPATTQALINAVKAAGFKTIRIPVSWSQYADANYNISSSWMARVKQVVDYAKNAGFYVIINIHWDGGWMQPTYANQAAVNSRLTKLWTQIANNFKNYDDYLLFAGTNEVMVDGDYGTPTYEYYTVQNSFNQTFVNTVRATGGNNAVRHLVVQGFNTNIDHTISFVSIPSDSASNRLMMEVHYYDPYNFTLNASSNIWQWGANATNSSATETWANETYVNTQFQRMKTRFIDNGVAVILGEFGAISRTNIPGAESYRTYWNQYITRAAYTRGLVPIYWDNGYTANNGMGLFDRYNGAQVYPNLISTIINAAQ
notes: C-terminal GH5_4 catalytic module, signal peptide and FN3 domain removed; N-terminal His6 (pET28a), E. coli
As to B2, in series [2] (50 mM phosphate pH 7.0, 50 °C), the Michaelis constant (Km) came to 70 ± 10 µM, the kcat was determined as 2.82 ± 0.0667 s⁻¹ and the catalytic efficiency (kcat/Km) came to 40200 ± 5830 M⁻¹ s⁻¹. For the same molecule, in series [3] (50 mM phosphate pH 7.0, 50 °C), the Km stood at 30 ± 2 µM, the kcat stood at 6.55 ± 0.133 s⁻¹ and the specificity constant (kcat/Km) worked out at 218000 ± 15000 M⁻¹ s⁻¹.

B3: CjGH5E (Cellvibrio japonicus Ueda107) (protein)
chain: SSSGSSLTSVELTRLMGVGWNVGNTLDAIGGETNWGNPLITQQLISSVKAAGFKTLRVPVAWSKFTNAATFTIDPAWLNRVEQVVNYALNEDMYVMINIHWDGGWMQPTYAQQAYVNNRLSIMWTQIANHFRNYGDKLLFAGTNEVMVEGDYGTPTVEYYTVQNSFNQTFVDTVRATGGNNANRFLVVQGFNTNIDHTVNFARIPTDSASNRLLMEVHYYDPYNFTLNTSSNITQWGAIATNPAVTETWANEAYADAQFEKMRTNFINRGVGVILGEYGVVSRLNVSGHETFRVYYNQYITKSAYQRGLVPVYWDNGYSGDGGFALFDRNSGNQLYPDIIRAIVNATF
notes: GH5_4 catalytic module, signal peptide and CBM2-CBM10 removed; N-terminal His6 (pMCSG53), E. coli
As for B3, the Km in series [4] is 11800 ± 600 µM; in series [5] it was 5020 ± 350 µM; in series [2] (50 mM phosphate pH 7.5, 55 °C), 10 ± 1 µM; in series [3] (50 mM phosphate pH 7.5, 55 °C) it was 10 ± 1 µM. Besides, the kcat in series [4] was 3.18 ± 0.117 s⁻¹; in series [5] it was 3 ± 0.117 s⁻¹; in series [2] (50 mM phosphate pH 7.5, 55 °C) it was 4.23 ± 0.0667 s⁻¹; in series [3] (50 mM phosphate pH 7.5, 55 °C) it was 5.53 ± 0.15 s⁻¹. The kcat/Km in series [4] amounted to 270 ± 16.7 M⁻¹ s⁻¹; in series [5], 598 ± 46.7 M⁻¹ s⁻¹; in series [2] (50 mM phosphate pH 7.5, 55 °C), 423000 ± 43300 M⁻¹ s⁻¹; in series [3] (50 mM phosphate pH 7.5, 55 °C) it was 553000 ± 56700 M⁻¹ s⁻¹.

These data come from article PMC5816542, “In vitro and in vivo characterization of three Cellvibrio japonicus glycoside hydrolase family 5 members reveals potent xyloglucan backbone-cleaving functions” (Biotechnology for Biofuels, 2018).
